pKd: −log10 of the molar value.
Biological target: NIH-CoVnb-112
Experiment: BLI

NIH-CoVnb-112, sequence (heavy, as listed by the source): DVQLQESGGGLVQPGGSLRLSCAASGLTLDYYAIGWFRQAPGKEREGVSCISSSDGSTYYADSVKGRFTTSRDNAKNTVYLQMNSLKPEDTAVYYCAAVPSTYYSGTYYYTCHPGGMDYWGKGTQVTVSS

With “SARS-CoV-2 RBD K417N (from UniProt P0DTC2) (domain or fragment)” the pKd was 8.85.
In the case of “SARS-CoV-2 RBD T478K (from UniProt P0DTC2) (domain or fragment)”, the pKd was 9.30.
Work on “SARS-CoV-2 RBD L452R (from UniProt P0DTC2) (domain or fragment)” yielded a pKd of 8.31.
